Laboratory results published in patent US20120156198A1 (Hoffmann-La Roche, published 2012).

Experiments:
Experiment in all cases: ELISA, hFc fusion protein captured on anti-human Fc
[1] = target: T1, rhST-2/hFc (R&D Systems, Cat. No. 523-ST) (human, UniProt Q01638-2 19-328, limits assumed)
T1 construct: Bought; not shown: human Fc (hFc) of the commercial protein
T1 sequence (looked up): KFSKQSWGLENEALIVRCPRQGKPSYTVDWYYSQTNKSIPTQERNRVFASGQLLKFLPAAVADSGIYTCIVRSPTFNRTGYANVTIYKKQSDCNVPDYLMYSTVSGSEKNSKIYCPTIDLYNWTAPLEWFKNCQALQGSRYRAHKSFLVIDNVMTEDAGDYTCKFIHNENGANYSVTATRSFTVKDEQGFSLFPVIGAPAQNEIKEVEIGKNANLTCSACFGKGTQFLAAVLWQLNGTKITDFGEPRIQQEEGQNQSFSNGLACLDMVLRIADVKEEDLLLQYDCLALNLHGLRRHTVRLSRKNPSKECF
Experimental: (§1) The test was performed on 384-well microtiter plates (MaxiSorp™, Thermo Scientific Nunc, DK, Cat. No. 464718) at RT. After each incubation step, plates were washed 3 times with PBST. At the beginning, plates were coated with 0.5 μg/ml goat anti-human IgG Fc fragment (Jackson 1 mm. Res., US, Cat. No. 109-006-170) for at least 2 hours (h). Thereafter the wells were blocked with PBS supplemented with 0.2% Tween®-20 and 2% BSA (Roche Diagnostics GmbH, DE) for 1 h. 0.2 μg/ml of recombinant human IL-18Rα-Fc fusion protein (R&D Systems, UK, Cat. No. 816-LR) was captured on plate for 1 h. For testing the binding of antibodies to other proteins of the IL-1 receptor family 0.2 μg/ml of the following recombinant human proteins conjugated to human Fc (hFc) were captured: [0194] rhIL-1RI/hFc (R&D Systems, UK, Cat. No. 269-1R) [0195] rhIL-1sRII/hFc (R&D Systems, UK, Cat. No. 263-2R) [0196] rhIL-1R3/hFc (R&D Systems, UK, Cat. No. 676-CP) [0197] rhIL-2Rα/hFc (R&D Systems, UK, Cat. No. 1020-RL) [0198] rhIL-7Rα/hFc (R&D Systems, UK, Cat. No. 306-IR) [0199] rhIL-15R/hFc (R&D Systems, UK, Cat. No. 147-IR) [0200] rhST-2/hFc (R&D Systems, UK, Cat. No. 523-ST)
(§2) After washing the plate, dilutions of purified antibodies in PBS with 0.05% BSA and 0.2% Tween®-20 were incubated with the receptor proteins for 1 h. Binding of antibodies was detected with 1:2000 diluted horseradish peroxidase (HRP)-conjugates of anti-mouse IgG (GE Healthcare, UK, Cat. No. NA9310V). After 1 h the plates were washed 6 times with PBST and developed with freshly prepared BM Blue® POD substrate solution (BM Blue®: 3,3″-5,5″-Tetramethylbenzidine, Roche Diagnostics GmbH, DE, Cat. No. 11484281001) for 30 minutes at RT. Absorbance was measured at 370 nm. The values were corrected for the control without antibody.

[2] = target: T2, rhIL-1R3/hFc (R&D Systems, Cat. No. 676-CP) (human, UniProt Q9NPH3 21-359, limits assumed)
T2 construct: Bought; not shown: human Fc (hFc) of the commercial protein
T2 sequence (looked up): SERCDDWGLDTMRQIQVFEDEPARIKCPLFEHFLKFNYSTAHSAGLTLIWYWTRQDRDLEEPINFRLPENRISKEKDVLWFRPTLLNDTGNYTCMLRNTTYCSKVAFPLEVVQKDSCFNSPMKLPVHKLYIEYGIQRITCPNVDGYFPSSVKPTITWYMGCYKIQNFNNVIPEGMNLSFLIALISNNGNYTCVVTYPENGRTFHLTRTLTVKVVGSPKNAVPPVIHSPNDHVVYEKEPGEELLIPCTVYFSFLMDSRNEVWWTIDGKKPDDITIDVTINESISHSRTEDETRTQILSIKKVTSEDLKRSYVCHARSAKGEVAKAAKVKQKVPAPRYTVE
Experimental: as §1, §2

[3] = target: T3, rhIL-2Rα/hFc (R&D Systems, Cat. No. 1020-RL) (human, UniProt P01589 22-213)
T3 construct: Bought; not shown: human Fc (hFc) of the commercial protein
T3 sequence (looked up): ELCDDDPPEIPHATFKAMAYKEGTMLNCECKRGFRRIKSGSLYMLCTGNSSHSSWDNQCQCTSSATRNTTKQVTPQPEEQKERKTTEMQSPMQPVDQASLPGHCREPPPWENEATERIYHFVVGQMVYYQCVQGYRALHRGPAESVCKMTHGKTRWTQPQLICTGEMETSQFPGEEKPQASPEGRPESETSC
Experimental: as §1, §2

Measured: absorbance at 370 nm (corrected for the control without antibody)

B1: Mab 2D11 (antibody, V domains shown)
VH: QVQLQQPGAELVKPGASVKMSCKASDYTFTSNWMHWVKQRPGQGLEWIGTIDPSDSYTYYNQKFKGKATLTVDTSSSTAYMHLSSLTSEDSAVYYCTTSGDYDADRYFDVWGAGTTVTVSS
VL: DIVLTQSPASLGVSLGQRATISCRASKSVSTSGDSYMHWYQQKPGQSPKLLIYLASNLESGVPARFSGSGSGTDFTLNIHPVEEEDAATYYCQQSRELPLSFGAGTKLELK
notes: Monoclonal antibody from immunized NMRI mice; detected with anti-mouse IgG1-PE / anti-mouse IgG; also called F20.2D11
0.02: all assays above
